Measured values reported in article doi:10.1101/2021.05.30.446358.

Biological target: LH1 αβ-polypeptide pair of Rhodospirillum rubrum (Rhodospirillum rubrum) (UniProt P02947)
Experiment: cryo-EM structure

Substance: LH1 αβ-polypeptide pair of Rhodospirillum rubrum (from UniProt P02947 1-52; P02950 1-49) (complex)
- stoichiometry N: 16
